These are literature values, as cited in PMC3292877.

One may read the Kd as the constant that tells how readily two partners part at equilibrium.

The series concerns the target ERK2 (Rattus norvegicus) (UniProt P63086).

Regarding ERK2 (from UniProt P63086), the equilibrium dissociation constant (Kd) was 7 nM.
